± gives the uncertainty stated by the source.
test: protein stability index of a GFP-peptide fusion (yeast GPS) (PSI 1-4); higher = more stable; sorted into four equal gates, so the index is relative within each strain; details: doa10∆
Method in brief: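 Peptides tiling yeast proteins in 17-residue segments were fused downstream of GFP, with Cherry expressed from the same plasmid. As a pooled library in yeast, mid-log cultures grown in leucine-free medium were sorted into four equal gates by GFP/Cherry fluorescence ratio. Gate plasmids were PCR-amplified and Illumina-sequenced, and barcodes linked reads to strains. Each peptide received a protein stability index equal to the sum of each gate's read frequency times its gate number.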

In the case of GKLFSDIKVLKRQLIKE [YIL149C/MLP2], the protein stability index is reported as 3.01 ± 0.12.

same assay, conditions: pdr5∆

Going from FKKDLVIVLSNISHLLE [SWI1] to FKKLTKDIFRYMQRTVE [RPB2], the protein stability index falls from 1.63 ± 0.067 to 1.4 ± 0.034.

Going from FKLGKFNYVAVGDVSNL [QCR2] to FKNDFNSFYYTSLLYLS [RPN9], the protein stability index falls from 2.01 ± 0.1 to 1.81 ± 0.073.

Compared with FKQAKERVMKNKVEENL [RPT2], FKVRTNLNDKFGIYILT [MED1] is lower in protein stability index: 3.27 ± 0.061 for the first, 1.87 ± 0.046 for the second.

FKYVSVRYEEKRELKQL [BRR2] and FLFHAISGREGLVDTAV [RPO31] are within error of each other in protein stability index: 2.93 ± 0.056 for the first, 2.89 ± 0.28 for the second.

First: FLIDVLKIYAQIEKKEI [YCG1]
Second: FLLEKAGERKIPHDLNF [TAF14]
The protein stability index of the first is lower: 1.93 ± 0.063 for the first, 2.71 ± 0.062 for the second.

Going from FLNSNAVVVGTGNIKHE [COR1] to FLQSQRQQQQRSILQSL [SWI1], the protein stability index rises from 1.36 ± 0.15 to 1.92 ± 0.073.

Going from FLTNELIRLQMEKLDAK [SWI3] to FMEAQGAGIQIIMQADL [FAS2], the protein stability index falls from 2.98 ± 0.085 to 2.33 ± 0.12.

First: FMKKLRAAKLAAPENEK [RPS15]
Second: FMTKLLEVANDLQLLYV [IRR1]
The protein stability index of the first is higher: 3.25 ± 0.17 for the first, 1.98 ± 0.075 for the second.

Compared with FNAGSNPPSYQSSEDVI [RPB7], FNEKFPSLIQEEEEDTT [NUT1] is higher in protein stability index: 2.67 ± 0.21 for the first, 3.15 ± 0.093 for the second.

Going from FNFFEPIKEAKIKHGSV [YMR129W/POM152] to FNKNLGKGPGCGFWQPA [PRP8], the protein stability index rises from 2.89 ± 0.056 to 3.25 ± 0.15.

Going from FNNEKETEKFALERNWP [RPN12] to FNSVVNLSRYPKSGIDI [MTR3], the protein stability index rises from 2.63 ± 0.055 to 2.96 ± 0.086.

Going from FNVPVVSKQLGNGLVDE [YAR002W/NUP60] to FPNIAIRPTELRLPFSA [PRP8], the protein stability index falls from 3.66 ± 0.22 to 1.85 ± 0.086.

FPQGLNIVMDSKQNGIE [SSN8] and FPRSRSRSRSSIRSISP [ESC2] are within error of each other in protein stability index: 3.04 ± 0.21 for the first, 3.18 ± 0.13 for the second.

Compared with FQALDSEETQFKYVEDR [ITC1], FRALGIIPDGEILEHIC [RPB2] is lower in protein stability index: 3.44 ± 0.12 for the first, 2.55 ± 0.12 for the second.

Going from FRISLGLPVGAIMNCAD [RPL23A] to FRKVKLRVDEVQGKNLL [RPS1B], the protein stability index rises from 1.9 ± 0.044 to 3.35 ± 0.15.

First: FSEEKAEEFDFNVPVVS [YAR002W/NUP60]
Second: FSFGAKPAEKNNNETSK [YJL041W/NSP1]
The protein stability index of the first is lower: 1.34 ± 0.16 for the first, 2.52 ± 0.24 for the second.

FSKGDADVLVDRVVSSD [SRP72] and FSKIAEYYRIQKQLPQK [ESC2] are within error of each other in protein stability index: 3.2 ± 0.098 for the first, 2.99 ± 0.15 for the second.

Going from FSNRFLPVASPFHSHLL [FAS1] to FSQKANKTKAVDNTVPS [YOR098C/NUP1], the protein stability index falls from 2.98 ± 0.11 to 1.63 ± 0.056.

Going from FSSLAISEINFLHESSF [CSI1] to FTAEGIVPDLIINPHAI [RPB2], the protein stability index falls from 2.56 ± 0.035 to 2.36 ± 0.081.

Compared with FTKKPVTPNDKIPEREE [SIR4], FTKNEEKLLKELENNEF [ITC1] is lower in protein stability index: 2.95 ± 0.087 for the first, 2.28 ± 0.074 for the second.

First: FTNPSIVKVFHGAFMDI [RRP6]
Second: FTNRSTMMANFEEWIKM [BRN1]
The protein stability index of the first is lower: 1.57 ± 0.062 for the first, 2.31 ± 0.19 for the second.

FTNVLTKYSDVLGFLQL [YJL039C/NUP192] and FTNVPLNLEQVTLNKYC [YJL039C/NUP192] are within error of each other in protein stability index: 2.07 ± 0.071 for the first, 1.99 ± 0.045 for the second.

Going from FTRIFLPIYDSLMSSQN [SIR3] to FVDDMLRDYRFEDATRE [SNF5], the protein stability index rises from 2.05 ± 0.038 to 3 ± 0.095.

First: FVDLNEKELQNEIKQLG [SRB4]
Second: FVEVERARVTKDLVEIK [RPN5]
The protein stability index of the first is lower: 2.41 ± 0.17 for the first, 3.44 ± 0.093 for the second.

Going from FVIGVIIGTFSDSYKVS [RRP40] to FVIHIQEKNFQTGIFVY [RPB5], the protein stability index rises from 1.41 ± 0.068 to 1.58 ± 0.05.

Compared with FVRQAAMIALSMILIQQ [RPN2], FYAAVQKNYADPEKDSI [SIN4] is higher in protein stability index: 1.75 ± 0.17 for the first, 2.58 ± 0.074 for the second.

First: GAHKFLDTYLPEDLNSL [SIR2]
Second: GAINVANCQRQLTEFWT [NNF1]
The protein stability index of the first is lower: 1.88 ± 0.076 for the first, 2.76 ± 0.13 for the second.

Going from GALIHKAGLMTGGISGD [SMC1] to GARFDDGAGGDNEVQRT [RPT1], the protein stability index rises from 2.73 ± 0.11 to 3.4 ± 0.26.

Going from GARPGRVARRNAARKAE [RPS9A] to GATYRGKLVESEDSMNV [SMD3], the protein stability index falls from 3.45 ± 0.17 to 2.73 ± 0.053.

Compared with GCLHKGKLISNLSSTPM [YML031W/NDC1], GCNNLIKNISNRVGLTL [ARP9] is higher in protein stability index: 1.81 ± 0.16 for the first, 2.63 ± 0.066 for the second.

Going from GCVSYSPAALKQLASLK [YMR153W/NUP53] to GDIVRMLETAGFSMNNP [SMC3], the protein stability index rises from 2.22 ± 0.07 to 3.26 ± 0.1.

Compared with GDLKLQVLLDEEYKQLV [RPO21], GDLVYARVCTAEKELEA [RRP40] is lower in protein stability index: 2.94 ± 0.082 for the first, 1.51 ± 0.19 for the second.

First: GEGSTVNASVDVDQHGN [SWI3]
Second: GEHEKSNILLNSLTKYP [MED1]
The protein stability index of the first is higher: 3.47 ± 0.17 for the first, 1.92 ± 0.076 for the second.

Going from GEIDFIKNIGKSLKNNF [YML103C/NUP188] to GEIVSINQINEAHPTKV [RPL20A], the protein stability index rises from 2.57 ± 0.18 to 2.98 ± 0.17.

GELDVLQIESVTKETVH [PRP8] and GELLHHPIMETIVNDSN [RPN9] are within error of each other in protein stability index: 2.73 ± 0.066 for the first, 2.77 ± 0.054 for the second.

Going from GESTVESEKLVTPEDVM [RPC82] to GETIKSNAVTQTNIWEE [SEM1], the protein stability index rises from 3.25 ± 0.12 to 3.54 ± 0.16.

First: GFQDRSLPHFPKNSKTP [RPO31]
Second: GFSFGSQLGGNKTVNEA [YJL041W/NSP1]
The protein stability index of the first is lower: 1.96 ± 0.1 for the first, 3.23 ± 0.074 for the second.

First: GFVRNSFFSGLSPPEFL [RPO31]
Second: GGALDNPFEDDMDGVDF [BRN1]
The protein stability index of the first is lower: 2.95 ± 0.079 for the first, 3.32 ± 0.077 for the second.

Compared with GGDVVKFQKLLQNSERD [SMC4], GGESAYFFQLQIRSADE [RPC11] is lower in protein stability index: 3.11 ± 0.049 for the first, 2.88 ± 0.062 for the second.

Going from GGESMEGPKKCIQVNCL [SNM1] to GGNNNNNSTGIANDNVI [SWI1], the protein stability index rises from 1.95 ± 0.054 to 3 ± 0.053.

Going from GGQTKPVFHKKAKTTKK [RPL42A] to GGSGAATFSVSQASSDL [CSL4], the protein stability index rises from 2.94 ± 0.076 to 3.31 ± 0.074.

First: GHSLGEYAALASLADVM [FAS1]
Second: GIAIGLNKGKKVTQMTP [RPL36B]
The protein stability index of the first is higher: 2.29 ± 0.057 for the first, 1.51 ± 0.2 for the second.

Going from GIFEKAKAKAVTSKVRN [YMR153W/NUP53] to GIFNLLNTLFNPVTLNE [NUT1], the protein stability index falls from 2.59 ± 0.26 to 1.93 ± 0.052.

GIKATNGVVIATEKKSS [PRE8] and GIVSVSDPQMKVFDTLT [RPN1] are within error of each other in protein stability index: 2.89 ± 0.17 for the first, 2.93 ± 0.12 for the second.

Going from GKGESVIFNDNVTETYS [SIR3] to GKGHLVGRLASVVAKQL [RPL16A], the protein stability index falls from 2.92 ± 0.14 to 1.48 ± 0.051.

Going from GKGNTFEKVGSHLYKAR [RPN14] to GKILTIKQQQQQQQQQN [YML103C/NUP188], the protein stability index rises from 2.81 ± 0.14 to 3.13 ± 0.053.

Compared with GKIRGVEDDLVTVQTEL [SMC2], GKKLTDEINTAQDKWHL [RET1] is higher in protein stability index: 2.62 ± 0.068 for the first, 3.18 ± 0.084 for the second.
